This data set is described as follows: yeast display, Sf9 membrane polyspecificity reagent, FACS + sequencing; frameworks hold sequencing errors. An outline of the steps:
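Genes from sorted yeast were amplified by colony PCR, read by MiSeq 2 × 250 sequencing and filtered on CDR length. These cells carried a synthetic nanobody library in Saccharomyces cerevisiae BJ5465 and were sorted by FACS into low and high (top ~1%) gates on anti-HA and streptavidin fluorescence. Polyreactivity is labelled according to the gate of origin.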
Turning to “QVQLVDSGGGLVQAGGSLRLSCAASGSIFGQYTMGWYRQAPGKERELVAAINSSGDSTFYADSVKGRFTISRDNAKNTVYLQMNSLKPEDTAVYFCAADPYRYYFRAYGWHREGYYWGQGTQVTVSS”, the “polyreactivity (PSR sort gate)” value was “low polyreactivity”.
The result for “QVQLVESGGGLVQAGGSLRLSSAASGFIFPDYAMGWYRQAPGKERELVAAISFRDGSTYYADSVKGRFTISRDNAKNTVYLQMNSLKPEDTAVYFCAVRQVNWFGIGYEDDYWGQGTQVTVSS” reads “low polyreactivity”; that for “QDQLVESGGGLVQAGGSLRLSCAASGRIFNQYGMGWYRQAPGKERELVAAIRSGDSTNYADSVKGRFTISRDNAKNTVYLQMNSLKPEDTAVYYCARDRPGDYAGYDYWGQGTQVTVSS”, “low polyreactivity”.
The result for “QVQLEESGGGLVQAGGSLRLSCAASGNIFVSYAMGWYRQAPGKERELVAAISKSGGSTYYADSVKGRFTISRDNAKNTVYLQMNSLKPEDTAVYYCAARWYNRVKYQKYNYWGQGTQVTVSS” reads “high polyreactivity”; that for “QVQLVESGGGLVQAGGSLRLSCAASGGIFGVYAMGWYRQAPGKERELVAAISQSDTSTYYADSVKGRFTISRDNAKNTVYLQMNSLKPEDTAVYYCAAEYYLDYYTWFDYWGQGTQVTVSS”, “high polyreactivity”; that for “QVQLVESGGGLVQAGGSLRLSCSASGFTFRWYTMGWYTQSPGNERELVAAINYSGGSTYYADSVKGRFTISRDNAKNTVYLQMNSLKPEDTAVYYCAAQIYFPGRRYDYWGQGTQVTVSS”, “high polyreactivity”.
“QVQLVESCGGLVQAGCSLRLSCAASGRIFSTNAMGWYRPAPGKERELVAAISSSGSRTYLADSVKGRFTISRDNAKNTVYLQMNSLKPEDTAVYFCNALRNYHHYEYDYWGQGTQVTVSS”: the “polyreactivity (PSR sort gate)” value was “high polyreactivity”.
As for “QVQLVESGGGLVQAGGSLRFSCAASGSIFSSYDMGWYRQAPGKERELVAAITRGGTTNYADSVKGRFTISRDNAKNTVYLQMNSLKPEDTAVYYCNVAYGLLGISPGGDYWGQGTQVTVSS”, the “polyreactivity (PSR sort gate)” value was “low polyreactivity”.
The result for “QVQLQESGGVLVQAGGSLRLSCAARGYISLAQTIGWYRQAPGKEREFVASIALGSSTYYTDSEKGSFTISRDNAKTTVYLQMNSLKPEDTAVYYCAARVGASYAHDYWGQGTEVTVSS” reads “low polyreactivity”; that for “QVQLVESGGGLVQAGGSLRLSCAASGFTFKYYAMGWYRQAPGKERELVAAITKRGGSTYYADSVKGRFTISRDNAKNTVYLQMNSLKPEDTEVYYCAAYYKSTYVPGDYWGQGTQVTVSS”, “high polyreactivity”; that for “QVQLQESGGGLVQAGGSLRLSCAASGNISQVGVMGWYRQAPGKERELVATINFGGSSYYADSVKGRFTISRDNAKITVYLQMNSLKPEDTAVSYCNAKAYVWYLYDEFGYWGQGTQVTVSS”, “low polyreactivity”.
The result for “QVQLVESGGGLVQAGGSLRLSCAASGSTFYYNTMGWYRQAPGKERELVAAISWRGGSTYYADSVKGRYTISRDNAKNTVYLQMNSLKPEDTAVYYCAALTYYGSDYWGQGTQVTVSS” reads “high polyreactivity”; that for “QVQLVESGGGLVQAGGSLRLSCAASGRIFSQYAMGWYRQAPGKERELVAAISRRTGSTYYADSVKGRFTISRDNAKNTVYLQMNSLKPEDTAVYYCNKARLGWSYRQDDYLGQGTQVTVSS”, “high polyreactivity”.
Take “QVQLVDSGGGLVQAGGSLRLSCAASGYTFEAYAMGWYRQAPGKERELVAAINYSGGSTYADSVKGRFTISRDNAKNTVYLQMNSLKPEDTAVYYCATRLYGYWPYGFDYWGQGTQVTVSS”: the “polyreactivity (PSR sort gate)” value was “low polyreactivity”.
The result for “QVQLVESGGGIVQAGGSLRLICAASGSIFSSNAMGWYRQAPGKERELVAAISYSGGGTYYADSVKGRFTISRDNEKNTVYLQMNSLKAEDTAVYYCAVGILFGHYDYLGQGTQVTVSS” reads “high polyreactivity”.
The result for “QDQLVESGGGLVQAGGSLRLSCAASGFTFSAYAMGWYRQAPGKERELVAAISTRGGSTRYADSVKGRFTISRDNAKNTVYLQMNSLKPEDTAVYYCAVEVYSYLYYETYPTEYEYWGQGTQVTVSS” reads “high polyreactivity”; that for “QVQLVESGGGLVQAGGRLRLSCAASGSIVGLYVMGWYRQAPGKERELVATITSGGSTYYADSVKGRFTISRDNAKNTDYLQMNSLKPEDTAVYYSAADPQDAADLPDLFYDYDYWGQGTQVTVSS”, “low polyreactivity”.
The result for “QDQLVESGGGLVQSGGSLRLSCAASGSILWSYAMGWYIQAPGKERELVAANTSGGSTYYADSVKGRFTISRDNAKNTVYLQMNSLKPEDTAVYFCAADRWRDFWFNEEYWGQGTQVTVSS” reads “high polyreactivity”; that for “QVQLVESGGGVVQAGGSLRLSCDASGSTFDTYAMGWYRQAPGKERELVAGNTRRGGRTYYADSVKGRFTISRDNAKNTVYVQMNSLKPEDSAVYYCNALPQRPVGKRDHWGQGTQVTVSS”, “high polyreactivity”; that for “QVQLVESGGGLVQAGGSLRLSCAASGRTYGRNAMGWYRQEPGKDRELVASITKRGGSTYYADSVKGRFTISRDNAKNTVYLQMNSLKPEDTAVYYCAVEAYDYWGQGSQVTVSS”, “high polyreactivity”.
As for “QVQLVESGGGLVQAGGSLRLSCAASGRIFGYNTMGWYRQAPGKERELVAAINSGGRTYYADSVKGRFTISRDNAKNTVYLQMNSLKPEDTAVYYCAKPGLYFATFKKYDYWGQGTQVTVSS”, the “polyreactivity (PSR sort gate)” value is “high polyreactivity”.
“QVQLVESGGGLVQAGGSLRLSCAASGRTFSVYVMGWYRQAPGKERELVAAISSSGGRTYYADSVKGRFTISRDNAKNTVYLQMNSLKPEDTAVYYCAAETIVFYVEYNYWGQGTQVTVSS”: the “polyreactivity (PSR sort gate)” value is listed as “low polyreactivity”.
For the sequence “QVQLVESGGGLVQAGGSLRLSCAASGSIFYYYAMGWYRQAPGKERELVAAISSGGVRTYYADSVKGRFTISRDNAKNTVYLQMKSLKPEDTAVYYCAKDVHSGVTLIHERYYWGQGTQVTVSS”, the “polyreactivity (PSR sort gate)” value is “low polyreactivity”.
The result for “QVQLVESGGGLVQAGGSLRLSCAASGGIFRNYAMGWYRQAPGKERELVARISSAGSTNYADSVKGRFTNSRDNAKNTVYLLMNSLKPEDTAVYYCAKGWRSWAEEGHDYWGQGTQVTVSS” reads “low polyreactivity”.
The result for “QVQLVESGGGLVQAGGSLRLSCAASGGNFTYNAMGWYRQAPGKERELVASISRGGGSTYYADSVKGRFTISRDNAKNTVYLQMNSLKPEDTAVYYCAASFIVGYYGYDYWGQGTQVTVSS” reads “low polyreactivity”; that for “QVQLVESGGGLVQAGGSLRLSCAASGFTFYHYAMGWYRQAPGKERELGAAISRSGGSTYYADSVKGRFTISRDNAKNTVYLQMNSLKPEDTAVYYCAKVLRAKNSFDYWGQGTQVTVSS”, “high polyreactivity”.
The result for “QVQLQESGGGLVQAGGSLLSCAASGTISWVDEMGWYRQAPGNERELVAGIAGGGNTNYADSVKGRFTISRDNAKNTVYLLMNSLDTAVYYCAVVGFGRGNHIYWGQGTQVTVSS” reads “high polyreactivity”; that for “QVQLVESGGGLVQAGGSLRLSCAASGRIFDANVMGGYRQAPGKERELVAAISSGGRTKYADSVKGRFTISRDNAKNTVYLQMNSLKPEDTAVYYCAKKHSPLYDYWGQGTQVTVSS”, “low polyreactivity”.
Consider “QVQLVESGGGLVQAGGSLRLSCAASVRIFQRNVMGWYRQAPGKEWELVATINWSGASTYYADSVKGRFTISRDNAKNTVYLQMNSLTPEDTAVYYCAKDGHYPLVYLAFDYWGQGTQVTVSS”, for which the “polyreactivity (PSR sort gate)” value is given as “low polyreactivity”.
The result for “QVQLVESGGGLVQAGGSLRLSCAASGFTIWWYAMGWSRRAPGKERELVATITSGGRTNYAYSVKGRFTISRDNAKNTVYLQMTSLKPEDTAVYYCATRQLSKVKDMDYWGQGTQVTVSS” reads “high polyreactivity”; that for “QVQLVESGGGLVQAGGSLRLSCAASGIIFSLNTMGWYRQAPGKERELVAAISSSGGSTYYADSVKGRFTISRDNAKNTVYLQMTSLKPEDTAVYYCARRYAPNTSLTFYYWGQGTQVTVSS”, “low polyreactivity”; that for “QFQLVESGGGLVQAGGSLRLSCAASGSTFSANAMGWYRQAPGKERELVASISRRGGSTYYADSVKGRFTISRDIAKNTVYLQMNSLKPEDTAVYYCNKRFARQGSPSEYGRSQIGYYYWGQGTQVTVSS”, “high polyreactivity”.
The result for “QVQLVESGGGFVQAGGSLRLSCAASGRIFGVYALGWYRPAPGKERELVAAISYSGGSTYYADSVKGRFTISRVNAKNTVYLQMNSLKPEDTAVYYCAAKIFPKGDYWGQGTQVTVSS” reads “high polyreactivity”; that for “QVQLVESGGGLVQAGGSLRLSCAASGSIFVWNAMGWYRPAPGKERELVAAISYTDGSTYYADSVKGRFTISRDNAKNTVYLQMNSLKPVDTAVYYCAAAITPSYTGSEYDYWGQGTQVTVSS”, “low polyreactivity”.
In the case of “QVQLVESGGGIVQAGVSLRLSCAASGRTFWTNAMGWYRQAPGKERELVAVISTTTGNTYYADSVKGRFTISRDNAKNTVYLQMNSLKPEDTAVYYCNTRTGAFFLSKPYYYWGQGTQVTVSS”, the “polyreactivity (PSR sort gate)” value is reported as “low polyreactivity”.
In the case of “QVQLVESGGGLVQAGGSLRLSCAASGSTFGVYAMGWYRQAPGKERELVASISSRGRTKYADSVKGSFTISRDNAKNTVYLQMIRLKPEDTAFYYCAARIRYLGVRDNDNYYWGQGTQVTVSS”, the “polyreactivity (PSR sort gate)” value is reported as “low polyreactivity”.
In the case of “QVQLVESGGGLVQAGGSLRLSCAASGSIFYLNAMGWYRQAPGQERELVASISNGGSTNYADSVKGRFTISRDNAKHTVYLQMNSLKPEVTAVYYCAADYVVSAFDYWGQGTQLTVSS”, the “polyreactivity (PSR sort gate)” value was “low polyreactivity”.
The result for “QVQLVESGGGLLQAGGSLRLSCAASGFTFSTNAMGWYRQAPGKERDLVAAITWRGGSTYYADSVKGRFTISRDIAKKTVYVQLNSLKPEDTAVYYCAGRSRGSHVSYYKKFDYWGQGTHVTVSS” reads “low polyreactivity”; that for “QVQLVESGGGLVQAGGSLRLSCAASGLIFSYYAMGWYRQAPGKERELVAAISWSGGSTYYADSVKGRFTISRDNAKNTVYLQMNSLKPEDTAVYYCAADRISADYDYWGQGTQVTVSS”, “low polyreactivity”; that for “QVQLVDSGGGLVQAGVSLRLSCAASGFTFVFYAMGWYRQAPGKERELVAAISGRGGSTYYADSVKGRFTISRDNAKNTVYLQMNSLKPEDTAVYYCNALYVYRSVANFDYWGQGTQVTVSS”, “high polyreactivity”.
With “QVQLVESGGGLVQAGGSLRLICAASGSTFGPNAMGWYRQAPGKEREFVASISWRGGRTYYADSVKGRFTISRDNAKNSVYLQMYCLKPEDTAVSYCAAVSYPAVYGFDYWGQGTQVTVSS”, the “polyreactivity (PSR sort gate)” value was “high polyreactivity”.

For the origin of these results see the nanobody polyreactivity screen of Harvey et al. (2022).
